The target in the test is recombinant human MXRA8-Fc fusion protein (UniProt Q9BRK3). The settings on record: 37 °C; n = 2; parent: est. 19; read off a plot.

As for “Ross River virus T48, CPER-recovered wild type, purified virus (E1/E2 envelope glycoproteins on the virion) E2:H64W”, the Kd worked out at 66 nM.

What is called Kd is the concentration at which binding is half-saturated.

The values are drawn from article PMC8187723.
